Measurements from patent publication EP4725501A1 (Staidson (Beijing) Biopharmaceuticals Co., Ltd., dated 2026).

Tests used:
[1] = target: MASP2 in normal human plasma (human, UniProt O00187 16-686); test: cell-based or functional assay
[2] = target: T1, human MASP2 (R444Q) - His (human, UniProt O00187 16-686); test: ELISA; human MASP2 (R444Q)-His coated 0.1 ug/well, antibody titrated, goat anti-human IgG HRP
T1 construct: not shown: His tag at the C-terminus
T1 sequence (O00187 16-686 R444Q limits assumed): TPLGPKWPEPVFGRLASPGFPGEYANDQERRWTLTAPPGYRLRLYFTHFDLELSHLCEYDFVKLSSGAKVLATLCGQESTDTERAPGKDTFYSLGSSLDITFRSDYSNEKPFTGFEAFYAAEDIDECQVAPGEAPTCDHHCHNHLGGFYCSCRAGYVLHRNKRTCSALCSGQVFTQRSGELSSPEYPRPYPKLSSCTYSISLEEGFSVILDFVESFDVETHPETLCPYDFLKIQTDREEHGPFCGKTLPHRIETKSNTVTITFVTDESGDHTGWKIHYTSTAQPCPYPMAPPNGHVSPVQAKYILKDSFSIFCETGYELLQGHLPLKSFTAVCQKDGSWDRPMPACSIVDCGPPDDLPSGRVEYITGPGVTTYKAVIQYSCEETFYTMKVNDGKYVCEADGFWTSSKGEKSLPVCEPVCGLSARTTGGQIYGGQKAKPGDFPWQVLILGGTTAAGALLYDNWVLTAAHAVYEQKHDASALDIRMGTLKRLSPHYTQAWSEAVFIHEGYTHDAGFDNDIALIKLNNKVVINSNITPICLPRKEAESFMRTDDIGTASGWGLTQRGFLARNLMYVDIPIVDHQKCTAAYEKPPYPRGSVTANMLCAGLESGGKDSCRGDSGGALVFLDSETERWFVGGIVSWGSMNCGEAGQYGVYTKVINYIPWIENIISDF

Chain of MASP2 in normal human plasma (O00187 16-686 limits assumed): as the sequence (O00187 16-686 R444Q limits assumed) above, with Q429R counted along it

Binder	IC50 (nM), inhibition of complement C4b deposition (mannan-coated plate, 1% human plasma) [1]	EC50 [2]
humM2mc51-1 (antibody, V domains shown, Humanized anti-MASP2 antibody; also called anti-MASP2 antibody humM2mc51-1; parent antibody humM2mc51-1) VH: QVQLQESGPGLVKPSETLSLTCTVSGYSITSDYAWNWIRQPPGKKLEWMGYISYSGRTSYNPSLKSRITISRDTSKNQFSLKLSSVTAADTAVYYCSRHYGDYWGQGTLVTVSS VL: EIVMTQSPATLSVSPGERATLSCKASQNVGTNVAWYQQKPGQSPRALIYSASYRYSGIPARFSGSGSGTEFTLTISSLQSEDFAVYFCHQYNSNPLTFGGGTKVEIK	0.055 nM	0.086 nM
humM2mc51-1-ES93DA (antibody, V domains shown, Mutant of humM2mc51-1) VH: QVQLQESGPGLVKPSETLSLTCTVSGYSITSDYAWNWIRQPPGKKLEWMGYISYSGRTSYNPSLKSRITISRDTSKNQFSLKLSSVTAADTAVYYCSRHYGDYWGQGTLVTVSS VL: DIVMTQSPATLSVSPGERATLSCKASQNVGTNVAWYQQKPGQSPRALIYSASYRYSGIPARFSGSGSGTEFTLTISSLQSEDFAVYFCHQYNANPLTFGGGTKVEIK	0.045 nM	0.082 nM
humM2mc51-1-N92Q (antibody, V domains shown, VL CDR3 mutant of humM2mc51-1) VH: QVQLQESGPGLVKPSETLSLTCTVSGYSITSDYAWNWIRQPPGKKLEWMGYISYSGRTSYNPSLKSRITISRDTSKNQFSLKLSSVTAADTAVYYCSRHYGDYWGQGTLVTVSS VL: EIVMTQSPATLSVSPGERATLSCKASQNVGTNVAWYQQKPGQSPRALIYSASYRYSGIPARFSGSGSGTEFTLTISSLQSEDFAVYFCHQYQSNPLTFGGGTKVEIK	0.11 nM	0.072 nM
humM2mc51-1-N92S (antibody, V domains shown, VL CDR3 mutant of humM2mc51-1) VH: QVQLQESGPGLVKPSETLSLTCTVSGYSITSDYAWNWIRQPPGKKLEWMGYISYSGRTSYNPSLKSRITISRDTSKNQFSLKLSSVTAADTAVYYCSRHYGDYWGQGTLVTVSS VL: EIVMTQSPATLSVSPGERATLSCKASQNVGTNVAWYQQKPGQSPRALIYSASYRYSGIPARFSGSGSGTEFTLTISSLQSEDFAVYFCHQYSSNPLTFGGGTKVEIK	0.09 nM	0.079 nM
